US6528295

Biological target: methylated PP2A C subunit (epitope-tagged, immunoprecipitated), P67775
Sequence (P67775 whole entry): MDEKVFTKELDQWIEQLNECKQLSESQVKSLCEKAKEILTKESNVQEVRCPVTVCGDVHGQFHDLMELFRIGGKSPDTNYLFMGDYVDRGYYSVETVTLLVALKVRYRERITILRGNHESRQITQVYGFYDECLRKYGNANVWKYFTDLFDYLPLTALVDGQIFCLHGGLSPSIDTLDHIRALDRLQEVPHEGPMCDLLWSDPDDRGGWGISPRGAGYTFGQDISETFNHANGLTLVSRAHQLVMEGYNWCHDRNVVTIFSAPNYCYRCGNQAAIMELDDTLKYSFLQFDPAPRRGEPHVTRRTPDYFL

B1: recombinant human Protein Phosphatase Methylesterase-1 (PME-1) (protein)
chain: MSALEKSMHLGRLPSRPPLPGSGGSQSGAKMRMGPGRKRDFSPVPWSQYFESMEDVEVENETGKDTFRVYKSGSEGPVLLLLHGGGHSALSWAVFTAAIISRVQCRIVALDLRSHGETKVKNPEDLSAETMAKDVGNVVEAMYGDLPPPIMLIGHSMGGAIAVHTASSNLVPSLLGLCMIDVVEGTAMDALNSMQNFLRGRPKTFKSLENAIEWSVKSGQIRNLESARVSMVGQVKQCEGITSPEGSKSIVEGIIEEEEEDEEGSESISKRKKEDDMETKKDHPYTWRIELAKTEKYWDGWFRGLSNLFLSCPIPKLLLLAGVDRLDKDLTIGQMQGKFQMQVLPQCGHAVHEDAPDKVAEAVATFLIRHRFAEPIGGFQCVFPGC
PP2A methylesterase activity: demethylation of immunoprecipitated C subunit, immunoblot with methylation-sensitive antibody 4b7: human PME-1 is a PP2A methylesterase | amount of 3H-methyl groups remaining on C subunit after 1 h at 32° C., SDS-PAGE: PME-1 was clearly able to demethylate PP2A C subunit as measured by this assay | methylesterase activity towards PP2A C subunit: lysates of bacteria expressing PME-1 contain a PP2A methylesterase activity not found in bacterial lysates lacking PME-1 | signal of the antibody that only recognizes unmethylated PP2A against a methylation-insensitive antibody, immunoblot: PME-1 was clearly able to demethylate PP2A C subunit, as measured by this assay
